Results published in publication PMC1369289.

T1: JunB selected fragment (Mus musculus, UniProt P09450 265-328)
T1 sequence: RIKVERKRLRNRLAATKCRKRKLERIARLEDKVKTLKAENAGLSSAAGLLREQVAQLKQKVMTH

T2: JunD selected fragment (Mus musculus, UniProt P15066 262-325)
T2 sequence: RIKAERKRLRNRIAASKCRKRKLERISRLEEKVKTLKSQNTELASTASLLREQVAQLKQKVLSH


How the values were obtained:
JunB selected fragment = biological target: T1, JunB selected fragment; assay: EMSA
JunD selected fragment = biological target: T2, JunD selected fragment; assay: EMSA
c-Jun selected fragment = c-Jun selected fragment (Mus musculus, UniProt P05627 255-313); assay: EMSA
Sequence of c-Jun selected fragment (P05627 255-313): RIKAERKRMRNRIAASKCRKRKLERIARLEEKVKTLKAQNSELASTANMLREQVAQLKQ

[1] = biological target: c-Fos model fragment;c-Jun model fragment (Mus musculus?;Mus musculus?, UniProt P01101;P05627 118-212;237-334, |); assay: mRNA display affinity selection, qPCR
Sequence of c-Fos model fragment;c-Jun model fragment (P01101 118-212, chain 1 of 2): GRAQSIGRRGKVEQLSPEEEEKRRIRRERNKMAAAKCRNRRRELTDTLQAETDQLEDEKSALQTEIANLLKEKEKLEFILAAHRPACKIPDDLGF
Sequence of c-Fos model fragment;c-Jun model fragment (P05627 237-334, chain 2 of 2): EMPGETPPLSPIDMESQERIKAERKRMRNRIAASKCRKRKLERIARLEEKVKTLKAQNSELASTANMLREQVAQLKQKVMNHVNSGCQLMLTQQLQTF

Binder | binding result (JunB selected fragment) | binding result (JunD selected fragment) | binding result (c-Jun selected fragment) | binding signal [1] [fold enrichment]
TRE EMSA probe (dsDNA) DNA 1: TTCTCCTATGACTCATCCAT DNA 2: AATGGATGAGTCATAGGAGA | binds | binds | binds | –
TRE bait DNA (dsDNA) DNA 1: TGATGACTCATCTCCTATGACTCATCCATTGCATGACTCAGACTTGATGAGTCAGCCGAGCATGAGTCAGACACCTTGCCTGAGCTCAGA DNA 2: TTCTGAGCTCAGGCAAGGTGTCTGACTCATGCTCGGCTGACTCATCAAGTCTGAGTCATGCAATGGATGAGTCATAGGAGATGAGTCATCA | – | – | – | ~100
